Assays:
[1] = target: T1, CopY C101A (Streptococcus pneumoniae D39, UniProt A0A0H2ZLC1 1-131, C101A); test: EMSA; Zn1 CopY dimer; 5 mM MgCl2; 200 mM NaCl; FA: 10 mM HEPES pH 7.0, 0.23 M NaCl, 2 mM TCEP, 40 uM ZnSO4 or 2 mM EDTA, 25 C; EMSA: 10 nM DNA, 25 mM HEPES pH 7.0, 200 mM NaCl, 5 mM MgCl2, 50 ug/mL BSA (apo: 5 mM EDTA), 25 C; settings: protein: recombinant; tags: N-terminal His6-TEV, cleaved; three non-native N-terminal residues remain (printed GAM); chain copies: 2; label: 5' fluorescein on strand 1; blunt
[2] = target: T1, CopY C101A; test: fluorescence anisotropy; Zn1 CopY dimer; 40 uM ZnSO4; 0.23 M NaCl; FA: 10 mM HEPES pH 7.0, 0.23 M NaCl, 2 mM TCEP, 40 uM ZnSO4 or 2 mM EDTA, 25 C; EMSA: 10 nM DNA, 25 mM HEPES pH 7.0, 200 mM NaCl, 5 mM MgCl2, 50 ug/mL BSA (apo: 5 mM EDTA), 25 C; settings: protein: recombinant; tags: N-terminal His6-TEV, cleaved; three non-native N-terminal residues remain (printed GAM); chain copies: 2; label: 5' fluorescein on strand 1; blunt

B1: 32-bp cop operator (single cop box) (dsDNA)
DNA 1: GTCTATAATTGACAAATGTAGATTTTAAGAGC
DNA 2: GCTCTTAAAATCTACATTTGTCAATTATAGAC
[1]
  Ka: 2e+07 M⁻¹
[2]
  Ka: 1e+07 M⁻¹

From paper PMC5772342, “Metal-dependent allosteric activation and inhibition on the same molecular scaffold: the copper sensor CopY from Streptococcus pneumoniae† †Electronic supplementary information (ESI) available. See DO”
